According to patent publication US20240240159A1:

What was measured:
Experiment in all cases: cell-based or functional assay
[1] = target: Purified NTproBNP antigen (UniProt P16860)
[2] = target: 358BP NTproBNP epitope-grafted FAD-GDH
[3] = target: 341BP NTproBNP epitope-grafted FAD-GDH
[4] = target: 358HNL-H3 epitope-grafted FAD-GDH
[5] = target: 358HNL-H1 epitope-grafted FAD-GDH
[6] = target: 341V5 epitope-grafted FAD-GDH
[7] = target: V5 peptide, Sigma (cat #V7754-4MG)

358BP NTproBNP epitope-grafted FAD-GDH, sequence (chain, as listed by the source): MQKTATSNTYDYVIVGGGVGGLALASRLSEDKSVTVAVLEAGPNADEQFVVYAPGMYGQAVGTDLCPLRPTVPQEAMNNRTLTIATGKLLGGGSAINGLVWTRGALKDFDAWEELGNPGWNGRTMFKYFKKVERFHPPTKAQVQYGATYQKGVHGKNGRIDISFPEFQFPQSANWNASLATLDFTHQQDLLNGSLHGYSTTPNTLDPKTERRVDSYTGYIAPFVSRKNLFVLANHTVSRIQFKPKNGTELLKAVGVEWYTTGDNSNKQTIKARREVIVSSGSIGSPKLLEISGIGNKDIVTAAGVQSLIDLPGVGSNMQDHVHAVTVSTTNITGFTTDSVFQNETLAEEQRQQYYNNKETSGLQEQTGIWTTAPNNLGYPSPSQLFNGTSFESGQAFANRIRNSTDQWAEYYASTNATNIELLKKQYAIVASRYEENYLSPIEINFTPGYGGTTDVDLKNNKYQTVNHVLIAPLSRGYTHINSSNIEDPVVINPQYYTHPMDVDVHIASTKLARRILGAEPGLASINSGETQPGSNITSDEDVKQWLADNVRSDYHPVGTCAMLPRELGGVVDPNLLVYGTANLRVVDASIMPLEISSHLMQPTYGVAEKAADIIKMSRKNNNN
UniProt P16860, sequence (P16860 27-134 limits assumed): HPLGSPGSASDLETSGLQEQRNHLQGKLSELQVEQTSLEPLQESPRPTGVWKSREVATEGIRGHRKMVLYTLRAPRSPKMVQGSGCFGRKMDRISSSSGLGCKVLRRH
358HNL-H1 epitope-grafted FAD-GDH, sequence (chain, as listed by the source): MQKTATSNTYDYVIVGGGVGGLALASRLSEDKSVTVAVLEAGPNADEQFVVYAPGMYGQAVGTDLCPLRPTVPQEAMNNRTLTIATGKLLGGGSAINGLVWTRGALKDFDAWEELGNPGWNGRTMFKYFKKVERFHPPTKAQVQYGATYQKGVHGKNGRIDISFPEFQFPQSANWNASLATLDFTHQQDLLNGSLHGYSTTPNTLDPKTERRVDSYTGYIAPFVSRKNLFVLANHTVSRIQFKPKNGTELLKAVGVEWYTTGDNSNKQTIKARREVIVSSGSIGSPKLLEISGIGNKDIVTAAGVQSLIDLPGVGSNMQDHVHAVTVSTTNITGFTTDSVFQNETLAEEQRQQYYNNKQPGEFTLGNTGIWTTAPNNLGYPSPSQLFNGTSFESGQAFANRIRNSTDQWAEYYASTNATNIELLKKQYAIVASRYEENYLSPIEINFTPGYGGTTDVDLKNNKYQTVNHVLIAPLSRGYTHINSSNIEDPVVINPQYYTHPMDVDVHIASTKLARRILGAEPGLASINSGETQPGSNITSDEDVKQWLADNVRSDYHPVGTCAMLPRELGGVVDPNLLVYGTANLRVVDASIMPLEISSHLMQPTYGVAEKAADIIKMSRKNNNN
358HNL-H3 epitope-grafted FAD-GDH, sequence (chain, as listed by the source): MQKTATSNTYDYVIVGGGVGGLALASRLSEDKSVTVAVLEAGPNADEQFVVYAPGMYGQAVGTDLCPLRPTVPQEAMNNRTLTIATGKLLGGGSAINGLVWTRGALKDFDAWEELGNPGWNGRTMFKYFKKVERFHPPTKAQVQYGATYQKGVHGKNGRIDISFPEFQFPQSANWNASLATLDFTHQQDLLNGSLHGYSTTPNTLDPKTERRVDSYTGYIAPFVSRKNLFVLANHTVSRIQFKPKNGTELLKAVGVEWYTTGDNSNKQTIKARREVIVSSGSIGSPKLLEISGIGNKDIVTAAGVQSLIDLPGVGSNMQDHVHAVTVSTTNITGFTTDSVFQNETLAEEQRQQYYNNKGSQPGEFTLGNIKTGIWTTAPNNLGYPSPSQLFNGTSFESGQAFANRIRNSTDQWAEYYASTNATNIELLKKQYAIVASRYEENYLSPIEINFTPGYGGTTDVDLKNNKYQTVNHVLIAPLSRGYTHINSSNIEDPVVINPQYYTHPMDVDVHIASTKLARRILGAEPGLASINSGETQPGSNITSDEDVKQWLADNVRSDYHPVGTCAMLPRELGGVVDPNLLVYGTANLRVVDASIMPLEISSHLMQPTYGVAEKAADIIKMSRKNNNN
341BP NTproBNP epitope-grafted FAD-GDH, sequence (chain, as listed by the source): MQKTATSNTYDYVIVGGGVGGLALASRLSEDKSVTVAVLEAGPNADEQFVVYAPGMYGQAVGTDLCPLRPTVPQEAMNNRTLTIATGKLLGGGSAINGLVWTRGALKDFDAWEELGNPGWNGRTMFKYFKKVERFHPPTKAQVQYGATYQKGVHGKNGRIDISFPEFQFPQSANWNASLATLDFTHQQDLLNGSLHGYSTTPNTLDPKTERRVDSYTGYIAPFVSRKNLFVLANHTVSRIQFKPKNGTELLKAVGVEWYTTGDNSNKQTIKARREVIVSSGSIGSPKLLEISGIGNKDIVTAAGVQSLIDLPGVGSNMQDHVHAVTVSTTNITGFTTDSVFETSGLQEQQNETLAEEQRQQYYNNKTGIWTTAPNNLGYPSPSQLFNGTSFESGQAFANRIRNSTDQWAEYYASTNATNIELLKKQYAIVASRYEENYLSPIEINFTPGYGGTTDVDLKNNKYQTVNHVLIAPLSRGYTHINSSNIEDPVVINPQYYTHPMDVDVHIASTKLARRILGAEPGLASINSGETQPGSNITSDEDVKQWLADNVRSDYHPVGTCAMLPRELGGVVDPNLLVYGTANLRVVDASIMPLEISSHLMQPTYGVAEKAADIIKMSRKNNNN

## Mouse α-NTproBNP antibody, Biorad (cat #MCA2641)
[1]
  percent inhibition of 341BP / 358BP by 500 nM antibody in the presence of 5 µM NTproBNP antigen: 0%
[2]
  percent inhibition of GDH activity, 500 nM antibody: 7%
[3]
  percent inhibition of GDH activity, 500 nM antibody: 25%

## Mouse α-NTproBNP antibody, Novus (cat #NB200-439)
[1]
  percent inhibition by 500 nM Novus antibody in the presence of 5 µM NTproBNP antigen: 0%
[2]
  percent inhibition of GDH activity, 500 nM antibody: 7%

## Rabbit α-HNL mAb, Abcam (cat #ab206427) (antibody)
[4]
  percent inhibition of GDH activity, 25 nM antibody: 60%
[5]
  percent inhibition of GDH activity, 25 nM antibody: 20%

## α-V5 antibody, mouse monoclonal, Sigma (cat #V8012-50UG)
[6]
  percent inhibition of GDH activity, 300 nM antibody: 50%
[7]
  percent inhibition of 341V5 by 300 nM α-V5 antibody in the presence of 3 µM V5 peptide: 9%
